This note sets out measurements from patent publication US7235627B2 (Novo Nordisk A/S, priority 1996, dated 2007).

For assay [1], the target named is T1, cloned human GLP-1 receptor (Homo sapiens, UniProt P43220). The experiment in a line: biochemical.
The target of assay [2] is T1, cloned human GLP-1 receptor. Briefly: cell-based or functional assay.

Usually EC50 stands for the concentration giving half of the maximal effect. A high value points to weaker potency.

T1 sequence (P43220 24-463): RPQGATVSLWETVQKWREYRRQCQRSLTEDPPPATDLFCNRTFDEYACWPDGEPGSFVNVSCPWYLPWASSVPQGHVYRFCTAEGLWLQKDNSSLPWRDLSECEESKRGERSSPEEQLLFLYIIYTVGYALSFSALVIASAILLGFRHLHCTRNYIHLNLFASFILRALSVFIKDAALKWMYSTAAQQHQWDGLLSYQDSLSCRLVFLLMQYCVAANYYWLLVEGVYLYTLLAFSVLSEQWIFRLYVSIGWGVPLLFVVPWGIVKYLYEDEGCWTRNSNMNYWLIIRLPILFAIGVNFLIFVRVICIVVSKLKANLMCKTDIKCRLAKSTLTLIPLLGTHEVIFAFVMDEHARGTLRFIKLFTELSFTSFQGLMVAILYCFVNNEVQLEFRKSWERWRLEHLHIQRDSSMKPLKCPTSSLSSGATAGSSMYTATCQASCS

`CC[C@H](C)[C@H](NC(=O)[C@H](Cc1ccccc1)NC(=O)[C@H](CCC(=O)O)NC(=O)[C@H](CCCNC(=N)N)NC(=O)[C@H](C)NC(=O)[C@H](C)NC(=O)[C@H](CCC(N)=O)NC(=O)CNC(=O)[C@H](CCC(=O)O)NC(=O)[C@H](CC(C)C)NC(=O)[C@H](Cc1ccc(O)cc1)NC(=O)[C@H](CO)NC(=O)[C@H](CO)NC(=O)[C@@H](NC(=O)[C@H](CC(=O)O)NC(=O)[C@H](CO)NC(=O)[C@@H](NC(=O)[C@H](Cc1ccccc1)NC(=O)[C@@H](NC(=O)CNC(=O)[C@H](CCC(=O)O)NC(=O)[C@H](C)NC(=O)[C@@H](N)Cc1c[nH]cn1)[C@@H](C)O)[C@@H](C)O)C(C)C)C(=O)N[C@@H](C)C(=O)N[C@@H](Cc1c[nH]c2ccccc12)C(=O)N[C@@H](CC(C)C)C(=O)N[C@H](C(=O)N[C@@H](CCCNC(=N)N)C(=O)NCC(=O)N[C@@H](CCCNC(=N)N)C(=O)NCC(=O)N[C@@H](CCCCNC(=O)CCCCCCCCCCC(=O)O)C(=O)O)C(C)C` [Example 16, Arg^26,34Lys^38(N^ε-(ω-carboxyundecanoyl))-GLP-1(7–38)-OH] gave an EC50 in assay [1] of 3.5 pM.

The compound “Arg^26,34Lys^36(N^ε-(ω-carboxyheptanoyl))-GLP-1(7-36)-OH (peptide)” gave an EC50, pM (stimulation of cAMP formation) in assay [2] of 8.8 pM.

Regarding “Arg^26,34Lys^38(N^ε-(ω-carboxyundecanoyl))-GLP-1(7-38)-OH (peptide)”, the EC50, pM (stimulation of cAMP formation) in assay [2] came to 3.5 pM.

In assay [2], “Arg^34Lys^26(N^ε-(γ-glutamyl(N^α-hexadecanoyl)))-GLP-1(7-37)-OH (peptide)” gave an EC50, pM (stimulation of cAMP formation) of 60 pM.
